Measurements reported in US20220135690A1 (TWIST BIOSCIENCE, published 2022).

Tests used:
[1] = target: T1, CXCR4 chemokine receptor (UniProt P61072 1-352); experiment: HTRF ligand competition
T1 chain: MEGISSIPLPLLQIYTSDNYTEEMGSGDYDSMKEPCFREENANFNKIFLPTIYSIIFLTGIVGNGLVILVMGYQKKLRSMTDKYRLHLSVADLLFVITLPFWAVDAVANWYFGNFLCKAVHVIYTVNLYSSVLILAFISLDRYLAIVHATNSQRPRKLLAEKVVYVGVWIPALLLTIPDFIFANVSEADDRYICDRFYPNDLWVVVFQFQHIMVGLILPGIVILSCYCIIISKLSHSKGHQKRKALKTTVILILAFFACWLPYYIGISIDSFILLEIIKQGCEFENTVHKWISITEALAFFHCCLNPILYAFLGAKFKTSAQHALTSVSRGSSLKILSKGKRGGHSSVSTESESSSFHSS

[2] = target: CXCR4 chemokine receptor (Pan troglodytes (Chimpanzee), UniProt P61072 1-352); experiment: cell-based or functional assay

B1: CXCR4-81-6 (antibody, V domains shown)
VH: EVQLVESGGGLVQAGGSLRLSCAASGRTFSSYAMGWFRQAPGKEREFVAAISWSGGSTYYADSVKGRFTISADNAKNTVYLQMNSLKPEDTAVYYCAAARGYWRWRLGRRYDYWGQGTQVTVSS
VL: DIQMTQSPSSLSASVGDRVTITCRASQSVTTYLNWYQQKPGKAPKLLIYGSSNLQSGVPSRFSGSGSGTDFTLTISSLQPEDFATYYCQQGYSTPWTFGGGTKVEIKR
[1]
  IC50: 0.687 nM
[2]
  IC50 in cAMP assay: 0.9 nM
